Experimental data reported in PMC9405973, “Altered Conformational Landscape upon Sensing Guanine Nucleotides in a Disease Mutant of Elongation Factor-like 1 (EFL1) GTPase” (Biomolecules, 2022).

Experiments:
[1] = target: Sdo1 (Saccharomyces cerevisiae) (UniProt Q07953); experiment: ITC; settings: cited from earlier work
[2] = test system: Tif6 bound to 60S subunits; experiment: Tif6 release assay with purified yeast components; type: biochemical, Saccharomyces cerevisiae; settings: 50 nM Efl1 variant, 50 nM Sdo1, 100 µM GTP, 30 °C, 10 min
Experimental: The release of Tif6 (yeast orthologue of eIF6) was performed as previously described in [3, 15]. Reaction mixtures contained 10 nM 60S subunits, 40 nM Tif6, 50 nM Efl1 variant, 50 nM Sdo1, and 100 µM GTP in buffer of 10 mM Tris-HCl at pH 7.4, 75 mM KCl, and 1.5 mM MgCl2 supplemented with RNAse inhibitors (Promega, Madison, WI, USA) and protease inhibitors free of EDTA (GoldBio, St. Louis, MO, USA). GTP was omitted in the negative control, and 50 mM EDTA was added as the positive control to disassemble the 60S ribosomal subunits. Reaction mixtures of 100 µL were incubated at 30 °C for 10 min and added on top of 150 µL of a 30% sucrose cushion prepared in the same buffer. Samples were centrifuged at 476,000× g for 30 min in an Optima tabletop MX ultracentrifuge with a TLA-100 rotor. The top 200 µL (free fraction) was recovered, and the remaining 50 µL was resuspended in 150 µL of the same buffer. Samples were precipitated with 30% trichloroacetic acid, electrophoresed in 10% Tris-glycine SDS-PAGE, transferred to a PVDF membrane, and immunoblotted with antibodies anti-eIF6 (PA531066; Thermo Scientific; dilution 1:3000) and anti-uL3 (OAAB09713; Aviva Systems Biology, San Diego, CA, USA; dilution 1:500) overnight at 4 °C. […] Signals were quantified using programme Image J version 1.8.0. […]

[3] = substrate: Nc1nc2c(ncn2[C@@H]2O[C@H](COP(=O)(O)OP(=O)(O)OP(=O)(O)O)[C@@H](O)[C@H]2O)c(=O)[nH]1; experiment: GTP hydrolysis by PNP-coupled Enzchek phosphate assay (MESG, 360 nm), pH 7.5, 5 mM MgCl2, 6 µM Efl1 alone, Michaelis-Menten fit.; type: biochemical; settings: 25.0 °C
Experimental: (§1) Finally, we measured the enzyme kinetics of mutant Efl1 R1086Q as an isolated enzyme and bound to Sdo1 using an enzymatic coupled assay with a purine nucleoside phosphorylase (PNP) enzyme. This analysis was extended to another disease mutation (EFL1 M882K) also located in domain IV of the GTPase using the equivalent yeast variant, Efl1 L910K [17]. The Km and kcat kinetic parameters were calculated using non-linear regression assuming a Michaelis–Menten model (Supplementary Table S1). […] The catalytic constant for mutant R1086Q and the wild-type enzyme consisted of 0.67 min^−1, and it was 0.58 min^−1 for mutant Efl1 L910K. […] In line with the proposed role of Sdo1 as a guanine exchange factor of Efl1, previous results have shown that the interaction of wild-type Efl1 with Sdo1 impacted its Km for GTP, decreasing its value 2–3-fold. The Km values for the complexes formed between Sdo1 and Efl1 mutants decreased by half with respect to their cognate-free counterpart and differed from each other. […] The measured Km value comprises all the microscopic rate constants of the individual reactions occurring in the enzyme, which include the binding to the substrate and product and the corresponding conformational changes.
Hydrolysis of GTP was measured using the Enzchek Phosphate Assay kit (Molecular Probes) as described by Webb. […]
Reactions were initiated and the GTPase was added after 3 min. Time courses were followed by recording the change in absorbance at 360 nm in a Cary 60 UV -Vis spectrophotometer (Agilent Technologies). Background absorbance was recorded prior to the addition of the GTPase and subtracted from the sample signals. The slope of the measured time courses corresponded to the GTP hydrolysis rate. […] Data were analysed by nonlinear regression to the M ichaelis-Menten equation with the program Origin Version 5.0 (OriginLab, Co., Northampton, MA). […]
(§2) Maximum emission at 440 nm was replotted as a function of nucleotide concentration and analysed

[4] = Enzyme kinetics of GTP hydrolysis (PNP coupled assay, Michaelis–Menten); type: biochemical, Saccharomyces cerevisiae; settings: isolated enzyme
Experimental: as §1
Hydrolysis of GTP was measured using the Enzchek Phosphate Assay kit (Molecular Probes) as described by Webb. Standard reactions consisted of 100 µL containing 6 µM of Efl1 R1086Q and Efl1 L910K, 0.3 mM MESG, 1.0 U purine nucleoside phosphorylase (PNP) and the indicated amounts of GTP. Measurements done in the presence of effector protein contained 25 µM of Sdo1.
The reaction buffer consisted of 50 mM HEPES -KOH pH 7.5, 150 mM NaCl, 5 mM MgCl2.
Reactions were initiated and the GTPase was added after 3 min. Time courses were followed by recording the change in absorbance at 360 nm in a Cary 60 UV -Vis spectrophotometer (Agilent Technologies). Background absorbance was recorded prior to the addition of the GTPase and subtracted from the sample signals. The slope of the measured time courses corresponded to the GTP hydrolysis rate. The concentration of releas ed phosphate was estimated using a molar absorption coefficient at 360 nm of 14,386 M -1 cm-1 previously described in [2]. Data were analysed by nonlinear regression to the M ichaelis-Menten equation with the program Origin Version 5.0 (OriginLab, Co., Northampton, MA). […]
M HEPES-KOH pH 7.4, 2.5 mM magnesium acetate, 50 mM sucrose, 2 mM DTT, 0.1 mM PMSF, 0.1 mM benzamidine, 8 mM putrescine, 1 mM spermidine. […]
Dilution at the end of each titration was no longer than 2.5% of the initial volume. Data were corrected for the background signal by subtracting the fluorescence of the same ligand concentration without the GTPase in the reaction mixture.
as §2

Sequence of Sdo1 (Saccharomyces cerevisiae) (Q07953 whole entry): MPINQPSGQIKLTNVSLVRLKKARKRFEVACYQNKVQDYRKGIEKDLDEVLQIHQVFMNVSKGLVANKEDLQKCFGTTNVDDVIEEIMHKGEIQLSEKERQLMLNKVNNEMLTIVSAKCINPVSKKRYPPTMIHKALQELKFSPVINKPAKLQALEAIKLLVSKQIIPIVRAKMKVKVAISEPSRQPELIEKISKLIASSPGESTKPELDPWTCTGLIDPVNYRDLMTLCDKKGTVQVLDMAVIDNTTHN
Sequence of Efl1 (P53893 whole entry): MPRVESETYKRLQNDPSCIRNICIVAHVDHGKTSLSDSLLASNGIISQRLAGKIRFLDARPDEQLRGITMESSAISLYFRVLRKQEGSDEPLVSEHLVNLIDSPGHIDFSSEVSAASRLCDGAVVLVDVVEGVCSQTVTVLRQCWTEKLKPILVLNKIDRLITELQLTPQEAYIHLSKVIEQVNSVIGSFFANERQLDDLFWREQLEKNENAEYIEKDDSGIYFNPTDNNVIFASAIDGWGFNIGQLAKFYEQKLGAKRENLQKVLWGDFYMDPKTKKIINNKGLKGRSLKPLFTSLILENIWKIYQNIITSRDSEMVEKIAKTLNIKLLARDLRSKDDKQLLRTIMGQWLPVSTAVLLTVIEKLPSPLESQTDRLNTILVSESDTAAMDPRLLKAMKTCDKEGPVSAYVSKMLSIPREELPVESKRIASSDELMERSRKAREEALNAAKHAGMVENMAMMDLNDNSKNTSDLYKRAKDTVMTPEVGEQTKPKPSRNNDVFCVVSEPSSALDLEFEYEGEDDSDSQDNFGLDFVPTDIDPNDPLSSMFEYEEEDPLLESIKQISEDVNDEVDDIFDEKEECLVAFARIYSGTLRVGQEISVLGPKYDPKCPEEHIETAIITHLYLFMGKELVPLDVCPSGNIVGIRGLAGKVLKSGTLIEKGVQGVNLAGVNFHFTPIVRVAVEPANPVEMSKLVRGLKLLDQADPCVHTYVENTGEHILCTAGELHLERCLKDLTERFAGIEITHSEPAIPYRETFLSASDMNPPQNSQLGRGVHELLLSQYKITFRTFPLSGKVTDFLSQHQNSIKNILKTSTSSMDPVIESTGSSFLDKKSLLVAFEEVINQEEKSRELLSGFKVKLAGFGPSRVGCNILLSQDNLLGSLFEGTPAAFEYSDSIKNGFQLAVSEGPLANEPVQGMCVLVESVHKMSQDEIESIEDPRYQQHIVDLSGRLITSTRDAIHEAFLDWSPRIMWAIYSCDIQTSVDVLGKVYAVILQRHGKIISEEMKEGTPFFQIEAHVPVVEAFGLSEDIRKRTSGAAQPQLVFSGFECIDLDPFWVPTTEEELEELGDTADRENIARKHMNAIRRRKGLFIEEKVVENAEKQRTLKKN

| Molecule | Kd [1] [nM] | release of Tif6 from the 60S subunit (distribution of Tif6 in free and bound fraction, immunoblot) [2] | Km [3] [µM] | kcat [4] [s⁻¹] |
| --- | --- | --- | --- | --- |
| Efl1 (from UniProt P53893) | 300 |  |  |  |
| Efl1 R1086Q (Saccharomyces cerevisiae S288C; R1086Q) (protein, recombinantly expressed in S. cerevisiae; isolated GTPase) MPRVESETYKRLQNDPSCIRNICIVAHVDHGKTSLSDSLLASNGIISQRLAGKIRFLDARPDEQLRGITMESSAISLYFRVLRKQEGSDEPLVSEHLVNLIDSPGHIDFSSEVSAASRLCDGAVVLVDVVEGVCSQTVTVLRQCWTEKLKPILVLNKIDRLITELQLTPQEAYIHLSKVIEQVNSVIGSFFANERQLDDLFWREQLEKNENAEYIEKDDSGIYFNPTDNNVIFASAIDGWGFNIGQLAKFYEQKLGAKRENLQKVLWGDFYMDPKTKKIINNKGLKGRSLKPLFTSLILENIWKIYQNIITSRDSEMVEKIAKTLNIKLLARDLRSKDDKQLLRTIMGQWLPVSTAVLLTVIEKLPSPLESQTDRLNTILVSESDTAAMDPRLLKAMKTCDKEGPVSAYVSKMLSIPREELPVESKRIASSDELMERSRKAREEALNAAKHAGMVENMAMMDLNDNSKNTSDLYKRAKDTVMTPEVGEQTKPKPSRNNDVFCVVSEPSSALDLEFEYEGEDDSDSQDNFGLDFVPTDIDPNDPLSSMFEYEEEDPLLESIKQISEDVNDEVDDIFDEKEECLVAFARIYSGTLRVGQEISVLGPKYDPKCPEEHIETAIITHLYLFMGKELVPLDVCPSGNIVGIRGLAGKVLKSGTLIEKGVQGVNLAGVNFHFTPIVRVAVEPANPVEMSKLVRGLKLLDQADPCVHTYVENTGEHILCTAGELHLERCLKDLTERFAGIEITHSEPAIPYRETFLSASDMNPPQNSQLGRGVHELLLSQYKITFRTFPLSGKVTDFLSQHQNSIKNILKTSTSSMDPVIESTGSSFLDKKSLLVAFEEVINQEEKSRELLSGFKVKLAGFGPSRVGCNILLSQDNLLGSLFEGTPAAFEYSDSIKNGFQLAVSEGPLANEPVQGMCVLVESVHKMSQDEIESIEDPRYQQHIVDLSGRLITSTRDAIHEAFLDWSPRIMWAIYSCDIQTSVDVLGKVYAVILQRHGKIISEEMKEGTPFFQIEAHVPVVEAFGLSEDIRKRTSGAAQPQLVFSGFECIDLDPFWVPTTEEELEELGDTADRENIARKHMNAIQRRKGLFIEEKVVENAEKQRTLKKN |  | reduced portion of Tif6 in the free fraction compared with that for the wild type | 146 | 0.0112 |
| Efl1 L910K (Saccharomyces cerevisiae S288C; L910K) (protein, recombinantly expressed in S. cerevisiae; isolated GTPase) MPRVESETYKRLQNDPSCIRNICIVAHVDHGKTSLSDSLLASNGIISQRLAGKIRFLDARPDEQLRGITMESSAISLYFRVLRKQEGSDEPLVSEHLVNLIDSPGHIDFSSEVSAASRLCDGAVVLVDVVEGVCSQTVTVLRQCWTEKLKPILVLNKIDRLITELQLTPQEAYIHLSKVIEQVNSVIGSFFANERQLDDLFWREQLEKNENAEYIEKDDSGIYFNPTDNNVIFASAIDGWGFNIGQLAKFYEQKLGAKRENLQKVLWGDFYMDPKTKKIINNKGLKGRSLKPLFTSLILENIWKIYQNIITSRDSEMVEKIAKTLNIKLLARDLRSKDDKQLLRTIMGQWLPVSTAVLLTVIEKLPSPLESQTDRLNTILVSESDTAAMDPRLLKAMKTCDKEGPVSAYVSKMLSIPREELPVESKRIASSDELMERSRKAREEALNAAKHAGMVENMAMMDLNDNSKNTSDLYKRAKDTVMTPEVGEQTKPKPSRNNDVFCVVSEPSSALDLEFEYEGEDDSDSQDNFGLDFVPTDIDPNDPLSSMFEYEEEDPLLESIKQISEDVNDEVDDIFDEKEECLVAFARIYSGTLRVGQEISVLGPKYDPKCPEEHIETAIITHLYLFMGKELVPLDVCPSGNIVGIRGLAGKVLKSGTLIEKGVQGVNLAGVNFHFTPIVRVAVEPANPVEMSKLVRGLKLLDQADPCVHTYVENTGEHILCTAGELHLERCLKDLTERFAGIEITHSEPAIPYRETFLSASDMNPPQNSQLGRGVHELLLSQYKITFRTFPLSGKVTDFLSQHQNSIKNILKTSTSSMDPVIESTGSSFLDKKSLLVAFEEVINQEEKSRELLSGFKVKLAGFGPSRVGCNILLSQDNLLGSLFEGTPAAFEYSDSIKNGFQLAVSEGPKANEPVQGMCVLVESVHKMSQDEIESIEDPRYQQHIVDLSGRLITSTRDAIHEAFLDWSPRIMWAIYSCDIQTSVDVLGKVYAVILQRHGKIISEEMKEGTPFFQIEAHVPVVEAFGLSEDIRKRTSGAAQPQLVFSGFECIDLDPFWVPTTEEELEELGDTADRENIARKHMNAIRRRKGLFIEEKVVENAEKQRTLKKN |  |  | 185 |  |
